How the values were obtained:
[1] = target: Nanoluc_DDB1 (N-terminal Nanoluc luciferase, G4S linker, DDB1 (FL)) (UniProt Q16531); test: NanoBRET in HEK293T cells, 10 µM compound Example 3-42; class A = greater than 4-fold increase
[2] = target: Nanoluc_DDB1 (N-terminal Nanoluc luciferase, G4S linker, DDB1 (FL)) (UniProt Q16531); test: NanoBRET in HEK293T cells, 10 µM compound Example 3-23; class B = 3-4 fold increase
[3] = target: Nanoluc_DDB1 (N-terminal Nanoluc luciferase, G4S linker, DDB1 (FL)) (UniProt Q16531); test: NanoBRET in HEK293T cells, 10 µM compound Example 3-11; class A = greater than 4-fold increase
[4] = target: Nanoluc_DDB1 (N-terminal Nanoluc luciferase, G4S linker, DDB1 (FL)) (UniProt Q16531); test: NanoBRET in HEK293T cells, 10-point titration of compound Example 3-66; class A = EC50<=0.25 µM
[5] = target: Nanoluc_DDB1 (N-terminal Nanoluc luciferase, G4S linker, DDB1 (FL)) (UniProt Q16531); test: NanoBRET in HEK293T cells, 10-point titration of compound Example 3-50; class A = EC50<=0.25 µM
[6] = target: Nanoluc_DDB1 (N-terminal Nanoluc luciferase, G4S linker, DDB1 (FL)) (UniProt Q16531); test: NanoBRET in HEK293T cells, 10 µM compound Example 3-49; class B = 3-4 fold increase
[7] = target: Nanoluc_DDB1 (N-terminal Nanoluc luciferase, G4S linker, DDB1 (FL)) (UniProt Q16531); test: NanoBRET in HEK293T cells, 10-point titration of compound Example 3-43; class A = EC50<=0.25 µM
[8] = target: Nanoluc_DDB1 (N-terminal Nanoluc luciferase, G4S linker, DDB1 (FL)) (UniProt Q16531); test: NanoBRET in HEK293T cells, 10 µM compound Example 3-22; class B = 3-4 fold increase
[9] = target: Nanoluc_DDB1 (N-terminal Nanoluc luciferase, G4S linker, DDB1 (FL)) (UniProt Q16531); test: NanoBRET in HEK293T cells, 10-point titration of compound Example 3-1; class A = EC50<=0.25 µM
[10] = target: Nanoluc_DDB1 (N-terminal Nanoluc luciferase, G4S linker, DDB1 (FL)) (UniProt Q16531); test: NanoBRET in HEK293T cells, 10 µM compound Example 3-54; class C = 2-3 fold increase
[11] = target: Nanoluc_DDB1 (N-terminal Nanoluc luciferase, G4S linker, DDB1 (FL)) (UniProt Q16531); test: NanoBRET in HEK293T cells, 10 µM compound Example 3-21; class B = 3-4 fold increase
[12] = target: Nanoluc_DDB1 (N-terminal Nanoluc luciferase, G4S linker, DDB1 (FL)) (UniProt Q16531); test: NanoBRET in HEK293T cells, 10 µM compound Example 3-24; class B = 3-4 fold increase
[13] = target: Nanoluc_DDB1 (N-terminal Nanoluc luciferase, G4S linker, DDB1 (FL)) (UniProt Q16531); test: NanoBRET in HEK293T cells, 10-point titration of compound Example 3-9; class A = EC50<=0.25 µM
[14] = target: Nanoluc_DDB1 (N-terminal Nanoluc luciferase, G4S linker, DDB1 (FL)) (UniProt Q16531); test: NanoBRET in HEK293T cells, 10 µM compound Example 3-1; class B = 3-4 fold increase
[15] = target: Nanoluc_DDB1 (N-terminal Nanoluc luciferase, G4S linker, DDB1 (FL)) (UniProt Q16531); test: NanoBRET in HEK293T cells, 10 µM compound Example 3-39; class B = 3-4 fold increase
[16] = target: Nanoluc_DDB1 (N-terminal Nanoluc luciferase, G4S linker, DDB1 (FL)) (UniProt Q16531); test: NanoBRET in HEK293T cells, 10 µM compound Example 3-29; class B = 3-4 fold increase
[17] = target: Nanoluc_DDB1 (N-terminal Nanoluc luciferase, G4S linker, DDB1 (FL)) (UniProt Q16531); test: NanoBRET in HEK293T cells, 10 µM compound Example 3-46; class B = 3-4 fold increase
[18] = target: Nanoluc_DDB1 (N-terminal Nanoluc luciferase, G4S linker, DDB1 (FL)) (UniProt Q16531); test: NanoBRET in HEK293T cells, 10 µM compound Example 3-10; class C = 2-3 fold increase
[19] = target: Nanoluc_DDB1 (N-terminal Nanoluc luciferase, G4S linker, DDB1 (FL)) (UniProt Q16531); test: NanoBRET in HEK293T cells, 10 µM compound Example 3-30; class C = 2-3 fold increase
[20] = target: Nanoluc_DDB1 (N-terminal Nanoluc luciferase, G4S linker, DDB1 (FL)) (UniProt Q16531); test: NanoBRET in HEK293T cells, 10 µM compound Example 3-34; class C = 2-3 fold increase
[21] = target: Nanoluc_DDB1 (N-terminal Nanoluc luciferase, G4S linker, DDB1 (FL)) (UniProt Q16531); test: NanoBRET in HEK293T cells, 10 µM compound Example 3-43; class A = greater than 4-fold increase
[22] = target: Nanoluc_DDB1 (N-terminal Nanoluc luciferase, G4S linker, DDB1 (FL)) (UniProt Q16531); test: NanoBRET in HEK293T cells, 10 µM compound Example 3-38; class B = 3-4 fold increase
[23] = target: Nanoluc_DDB1 (N-terminal Nanoluc luciferase, G4S linker, DDB1 (FL)) (UniProt Q16531); test: NanoBRET in HEK293T cells, 10 µM compound Example 3-61; class A = greater than 4-fold increase
[24] = target: Nanoluc_DDB1 (N-terminal Nanoluc luciferase, G4S linker, DDB1 (FL)) (UniProt Q16531); test: NanoBRET in HEK293T cells, 10 µM compound Example 3-7; class B = 3-4 fold increase
[25] = target: Nanoluc_DDB1 (N-terminal Nanoluc luciferase, G4S linker, DDB1 (FL)) (UniProt Q16531); test: NanoBRET in HEK293T cells, 10 µM compound Example 3-28; class B = 3-4 fold increase
[26] = target: Nanoluc_DDB1 (N-terminal Nanoluc luciferase, G4S linker, DDB1 (FL)) (UniProt Q16531); test: NanoBRET in HEK293T cells, 10 µM compound Example 3-32; class B = 3-4 fold increase

Sequence of Nanoluc_DDB1 (N-terminal Nanoluc luciferase, G4S linker, DDB1 (FL)) (Q16531 other isoform, or with tags, fused parts or gaps): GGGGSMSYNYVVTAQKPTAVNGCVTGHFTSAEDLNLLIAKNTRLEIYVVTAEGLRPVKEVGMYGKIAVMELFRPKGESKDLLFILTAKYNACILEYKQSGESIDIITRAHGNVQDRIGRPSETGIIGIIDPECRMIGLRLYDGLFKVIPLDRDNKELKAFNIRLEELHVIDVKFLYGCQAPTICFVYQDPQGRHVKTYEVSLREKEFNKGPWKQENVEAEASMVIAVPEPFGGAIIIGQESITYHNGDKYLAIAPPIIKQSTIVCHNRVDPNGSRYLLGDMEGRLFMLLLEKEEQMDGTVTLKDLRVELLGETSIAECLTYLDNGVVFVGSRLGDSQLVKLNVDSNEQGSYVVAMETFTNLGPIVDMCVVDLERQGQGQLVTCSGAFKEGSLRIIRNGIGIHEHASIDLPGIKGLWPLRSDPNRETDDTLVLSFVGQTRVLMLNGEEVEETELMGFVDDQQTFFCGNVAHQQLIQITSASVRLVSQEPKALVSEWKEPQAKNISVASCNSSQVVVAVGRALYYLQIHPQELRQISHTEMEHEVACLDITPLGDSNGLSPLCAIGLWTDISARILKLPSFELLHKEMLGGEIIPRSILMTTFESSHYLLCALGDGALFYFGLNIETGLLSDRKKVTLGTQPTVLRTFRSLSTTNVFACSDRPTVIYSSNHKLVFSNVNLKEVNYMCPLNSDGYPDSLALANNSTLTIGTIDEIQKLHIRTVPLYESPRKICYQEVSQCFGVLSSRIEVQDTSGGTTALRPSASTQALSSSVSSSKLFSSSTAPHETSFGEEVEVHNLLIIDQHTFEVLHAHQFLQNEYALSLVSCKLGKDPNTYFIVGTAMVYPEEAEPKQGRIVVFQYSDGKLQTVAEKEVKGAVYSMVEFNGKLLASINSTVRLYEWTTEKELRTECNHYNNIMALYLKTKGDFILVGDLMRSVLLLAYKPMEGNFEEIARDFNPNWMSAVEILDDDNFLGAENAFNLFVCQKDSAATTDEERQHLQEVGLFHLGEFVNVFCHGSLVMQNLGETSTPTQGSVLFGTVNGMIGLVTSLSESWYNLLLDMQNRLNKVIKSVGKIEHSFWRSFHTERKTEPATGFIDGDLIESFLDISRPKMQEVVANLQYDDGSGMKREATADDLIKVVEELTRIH

- NanoBRET fold increase [1]: > 4 fold
- NanoBRET fold increase [2]: 3 to 4 fold
- NanoBRET fold increase [3]: > 4 fold
- EC50 [4]: < 0.25 µM
- EC50 [5]: < 0.25 µM
- NanoBRET fold increase [6]: 3 to 4 fold
- EC50 [7]: < 0.25 µM
- NanoBRET fold increase [8]: 3 to 4 fold
- EC50 [9]: < 0.25 µM
- NanoBRET fold increase [10]: 2 to 3 fold
- NanoBRET fold increase [11]: 3 to 4 fold
- NanoBRET fold increase [12]: 3 to 4 fold
- EC50 [13]: < 0.25 µM
- NanoBRET fold increase [14]: 3 to 4 fold
- NanoBRET fold increase [15]: 3 to 4 fold
- NanoBRET fold increase [16]: 3 to 4 fold
- NanoBRET fold increase [17]: 3 to 4 fold
- NanoBRET fold increase [18]: 2 to 3 fold
- NanoBRET fold increase [19]: 2 to 3 fold
- NanoBRET fold increase [20]: 2 to 3 fold
- NanoBRET fold increase [21]: > 4 fold
- NanoBRET fold increase [22]: 3 to 4 fold
- NanoBRET fold increase [23]: > 4 fold
- NanoBRET fold increase [24]: 3 to 4 fold
- NanoBRET fold increase [25]: 3 to 4 fold
- NanoBRET fold increase [26]: 3 to 4 fold
Substance: HaloTag_CDK12 (N-terminal HaloTag, G4S linker, CDK12 (713-1052)) (from UniProt Q9NYV4 713-1052) (enzyme)

— US20240132485A1, “HETEROCYCLIC CULLIN RING UBIQUITIN LIGASE COMPOUNDS AND USES THEREOF” (CEMM - FORSCHUNGSZENTRUM FÜR MOLEKULARE MEDIZIN GMBH, priority 2020, published 2024)
